According to US20190375846A1 (ULTRAHUMAN ONE, published 2019):
Changes are numbered by the printed parent chain. Each block holds one binder with its values, some of them ahead of it.

Experiments:
human GITR-Fc [1] = biological target: T1, human GITR-Fc (human, UniProt Q9Y5U5 26-161); experiment: direct titration ELISA on coated human GITR-Fc, IgG1 0.001-1 µg/ml, OD 450 nm
T1 construct: Recombinant GITR-Fc; also called hGITR-Fc; hGITR; not shown: Fc part
T1 sequence (looked up): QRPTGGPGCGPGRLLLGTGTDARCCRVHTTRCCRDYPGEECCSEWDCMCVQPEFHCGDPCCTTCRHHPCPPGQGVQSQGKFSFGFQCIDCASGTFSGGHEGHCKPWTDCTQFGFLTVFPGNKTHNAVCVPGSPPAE
Experimental: (§1) To coat Greiner Bio-One High bind ELISA plates, target proteins were diluted to 1 μg/ml in carbonate buffer and added at 100 μl per well, at 4° C., o/n. Coated plates were washed 3× with PBS pH7.4, blocked with 1% BSA in PBS (380 μl/well) for 1 hr at RT, then washed 3× with PBS-Tween 20 (PBST). GITR antibodies (100 μl/well; diluted in PBST) were then added and then incubated 1 hr at RT. Plates were then washed 3× with PBST and goat anti-human kappa chain-HRP added (100 μl/well) at RT, for 1 hr. Plates were then washed 3× with PBST and twice with PBS before the addition of 100 μl TMB per well. Reactions were stopped by adding 100 μl 2M H₂SO₄/well and OD was read on a plate reader at 450 nm. IgG binding analysis via ELISA on negatively charged biomolecular surfaces were performed as previously described (see Mouquet et al., 2010, Nature 467: 591-595).
(§2) Retention of GITR-binding function in the purified IgG1 proteins was first examined by titration in direct binding ELISA against human GITR-Fc. […] Importantly, the >100-fold loss of binding function in the VH2 IgG family further illustrated that the HCDR1 could not be fully germ-lined a priori to match the native sequence of the human germline HCDR1 found in the framework used for grafting (IGHV3-7).

human GITR-Fc [2] = biological target: T1, human GITR-Fc; experiment: SPR (Biacore), Fab over GITR-Fc captured on anti-human Fc, 37 C, 1:1 model
Experimental: (§3) For affinity estimation, anti-human IgG Fc antibody was amine coupled at pH 5 onto three flow cells (Fc 1 to Fc 3) of a Biacore CM5 chip. The level of anti-Fc antibody immobilised onto the chip was approximately 550 RU. Human and cyno GITR-Fc and irrelevant receptor-Fc proteins were then captured onto the anti-Fc antibodies (by injecting over the antibody surface until nearly/completely saturated) in order that 80-100 RU were captured. Fab monomers were then injected over the Fc proteins captured on the chip at 37° C. a flow rate of 50 μl/min for 120 seconds, followed by Biacore running buffer (HBS-EP) being flowed over the chip for 240 seconds at 50 μl/min. The chip was regenerated between cycles using 2×15 second injections of 10 mM Glycine pH 2. The concentrations of Fab samples tested were 400, 200, 100, 50, 25, 12.5, and 6.25 nM. A Biacore running buffer control (0 nM) was also included as a control.
(§4) Monomeric Fab fragments were generated and flowed in the mobile phase on human and cyno GITR-Fc coated biosensor chips, to derive 1:1 binding values.

[3] = biological target: T2, cynomolgus monkey GITR-Fc (cynomolgus monkey (Macaca fascicularis)); experiment: as above
T2 construct: also called cyno GITR-Fc; cGITR-Fc
Experimental: as §3, §4

human GITR-Fc [4] = biological target: T1, human GITR-Fc; experiment: direct titration ELISA, coated human GITR-Fc, IgG1
Experimental: as §1, §2

human GITR-Fc [5] = biological target: T1, human GITR-Fc; experiment: ELISA of IgG1 proteins
Experimental: as §1
To examine the influence of these mutations on immunogenicity and function, five further designer mutants (A6.1 to A6.5, see Table 4 for CDR sequences) were also submitted for Epibase analysis (Table 5). […] Cyno GITR binding was greatly diminished for all of clones A6.2 to A6.5.

B1: VH4/VL1 IgG1 (antibody, V domains shown)
VH: EVQLVQSGAEVKKPGESLKISCKGSGFSLSTSGMGVGWVRQMPGKGLEWLAHIWWDDDKYYSPSFQGQVTISADKSISTAYLQWSSLKASDTAMYYCARTRRYFPFAYWGQGTLVTVSS
VL: EIVMTQSPATLSVSPGERATLSCKASQNVGTNVAWYQQKPGQAPRLLIYSASYRYSGIPARFSGSGSGTEFTLTISSLQSEDFAVYYCQQYNTDPLTFGGGTKVEIK
notes: Human IgG1; also called VH4 family
binding result (human GITR-Fc [1]): binds

B2: VH4/VL3 IgG1 (antibody, V domains shown)
VH: B1 VH
VL: DIQMTQSPSSLSASVGDRVTITCRASQNVGTNVAWYQQKPGKAPKLLIYSASYRYSGVPSRFSGSGSGTDFTLTISSLQPEDFATYYCQQYNTDPLTFGGGTKVEIK
notes: as for B1
binding result (human GITR-Fc [1]): binds

B3: VH1/VL1 Fab (Fab, V domains shown)
VH: QVTLRESGPALVKPTQTLTLTCTFSGFSLSTSGMGVGWIRQPPGKALEWLAHIWWDDDKYYNPSLKSRLTISKDTSKNQVVLTMTNMDPVDTATYYCARTRRYFPFAYWGQGTLVTVSS
VL: B1 VL
notes: also called VH1/VL1 Fab fragment
Kd (human GITR-Fc [2]): 110 nM
koff (human GITR-Fc [2]): 0.0051 s⁻¹
kon (human GITR-Fc [2]): 45000 M⁻¹ s⁻¹
Kd [3]: 270 nM
koff [3]: 0.0061 s⁻¹
kon [3]: 22000 M⁻¹ s⁻¹

B4: VH3/VL1 IgG1 (antibody, V domains shown)
VH: EVQLVESGGGLVQPGGSLRLSCAASGFSLSTSGMGVGWVRQAPGKGLEWLAHIWWDDDKYYVDSVKGRFTISRDNAKNSLYLQMNSLRAEDTAVYYCARTRRYFPFAYWGQGTLVTVSS
VL: B1 VL
notes: Human IgG1; also called VH3 family
binding result (human GITR-Fc [1]): binds

B5: VH2/VL1 IgG1 (antibody, V domains shown)
VH: EVQLVESGGGLVQPGGSLRLSCAASGFTFSSYWMSWVRQAPGKGLEWLAHIWWDDDKYYVDSVKGRFTISRDNAKNSLYLQMNSLRAEDTAVYYCARTRRYFPFAYWGQGTLVTVSS
VL: B1 VL
notes: Human IgG1; The dash printed in the HCDR1 of VH2 is an alignment gap; also called VH2 family
fold loss of binding function (against mVH/mVL IgG) (human GITR-Fc [4]): > 100 fold

B6: VH1/VL2 IgG1 (antibody, V domains shown)
VH: B3 VH
VL: B1 VL with M4L, V13L, K24R, E70D, Q79E, S80P
notes: Human IgG1; also called VH1 family
binding result (human GITR-Fc [1]): binds

B7: VH2/VL2 IgG1 (antibody, V domains shown)
VH: B5 VH
VL: B1 VL with M4L, V13L, K24R, E70D, Q79E, S80P
notes: Human IgG1; also called VH2 family
fold loss of binding function (against mVH/mVL IgG) (human GITR-Fc [4]): > 100 fold

B8: VH4/VL2 IgG1 (antibody, V domains shown)
VH: B1 VH
VL: B1 VL with M4L, V13L, K24R, E70D, Q79E, S80P
notes: as for B1
binding result (human GITR-Fc [1]): binds

B9: VH1/VL3 IgG1 (antibody, V domains shown)
VH: B3 VH
VL: B2 VL
notes: as for B6
binding result (human GITR-Fc [1]): binds

B10: VH2/VL3 IgG1 (antibody, V domains shown)
VH: B5 VH
VL: B2 VL
notes: as for B7
fold loss of binding function (against mVH/mVL IgG) (human GITR-Fc [4]): > 100 fold

B11: A6.1 IgG1 (antibody, V domains shown)
VH: B4 VH with M34Y, R102Q
VL: EIVLTQSPATLSLSPGERATLSCRASQSVGSNLAWYQQKPGQAPRLLIYSASNRYTGIPARFSGSGSGTDFTLTISSLEPEDFAVYYCQQYSTDPLTFGGGTKVEIK
notes: Human IgG1, designer mutant of D-A6; built as m28; also called D-A6.1; Clone A6.1
binding result (human GITR-Fc [5]): binds

The remaining lines, values ahead:

binding result (human GITR-Fc [1]): binds
B12: VH3/VL3 IgG1 (antibody, V domains shown)
VH: B4 VH
VL: B2 VL
notes: as for B4

binding result (human GITR-Fc [4]): binds
B13: MH-3 IgG1 (antibody, V domains shown)
VH: B4 VH with M34Y, V36M, G37S, L50V, D58E, R102Q
VL: B11 VL with S28N, N53Y, Y55A
notes: Human IgG1, designer clone; built as m28; also called Clone MH-3

binding result (human GITR-Fc [4]): binds
B14: MH-1 IgG1 (antibody, V domains shown)
VH: B4 VH with V36M, G37S, L50V, D58E, R102Q
VL: B11 VL with N53Y, Y55A
notes: Human IgG1, designer clone; built as m28; also called Clone MH-1

binding result (human GITR-Fc [5]): binds
B15: A6.4 IgG1 (antibody, V domains shown)
VH: B4 VH with M34Y, V36M, G37S, R102Q
VL: B11 VL
notes: Human IgG1, designer mutant of D-A6; built as m28; also called Clone A6.4

binding result (human GITR-Fc [4]): binds
B16: MH-4 IgG1 (antibody, V domains shown)
VH: B4 VH with M34Y, V36M, G37S, L50V, D58E, R102Q
VL: B11 VL with L33V, N53Y, Y55A
notes: Human IgG1, designer clone; built as m28; also called Clone MH-4

binding result (human GITR-Fc [5]): binds
B17: A6.2 IgG1 (antibody, V domains shown)
VH: B4 VH with M34Y, R102Q
VL: B11 VL with D94N
notes: Human IgG1, designer mutant of D-A6; built as m28; also called Clone A6.2

binding result (human GITR-Fc [4]): binds
B18: MH-2 IgG1 (antibody, V domains shown)
VH: B4 VH with M34Y, G37S, L50V, D58E, R102Q
VL: B11 VL with N53Y, Y55A
notes: Human IgG1, designer clone; built as m28; also called Clone MH-2

binding result (human GITR-Fc [5]): binds
B19: A6.5 IgG1 (antibody, V domains shown)
VH: B4 VH with M34Y, V36M, R102Q
VL: B11 VL
notes: Human IgG1, designer mutant of D-A6; built as m28; also called Clone A6.5

binding result (human GITR-Fc [5]): binds
B20: A6.3 IgG1 (antibody, V domains shown)
VH: B4 VH with M34Y, G37S, R102Q
VL: B11 VL
notes: Human IgG1, designer mutant of D-A6; built as m28; also called Clone A6.3
